Publication PMC3580866 (Biochemistry, 2013)
Where a chain is given by its changes, count along the chain named. In names and notes the source's numbering stands.

Tests used:
[1] = biological target: full length human SLBP, unphosphorylated, untagged, co-expressed with hSLIP1 in E. coli (human, UniProt Q14493 1-270); experiment: AUC
SEC = biological target: the molecule itself; experiment: SEC
AUC = biological target: the molecule itself; experiment: AUC

B1: human SLIP1, wild type, (His)6-tagged, co-expressed with hSLBP from pRSF-Duet (natural protein, UniProt A9UHW6 1-222, looked up)
chain: MGEPSREEYKIQSFDAETQQLLKTALKDPGAVDLEKVANVIVDHSLQDCVFSKEAGRMCYAIIQAESKQAGQSVFRRGLLNRLQQEYQAREQLRARSLQGWVCYVTFICNIFDYLRVNNMPMMALVNPVYDCLFRLAQPDSLSKEEEVDCLVLQLHRVGEQLEKMNGQRMDELFVLIRDGFLLPTGLSSLAQLLLLEIIEFRAAGWKTTPAAHKYYYSEVSD
Work on B1 yielded a Kd [1] of less than 0.9 nM.

B2: MIF4Gdb from Danio rerio (zebrafish orthologue of SLIP1) (natural protein, Danio rerio (zebrafish))
chain: ENSSKEDYKIQSFDLETQKLLKTALKDPGSVDLEKVSSVIVDQSLKDQVFSREAGRICYTIVQAEAKQTNGSVFRRNLLNRLQQEFKAREETRKRSTQEWVCLVSFICNIFDYLKVNNMPMVALVHPVYDCLFRLAQSDALKNEEEVDCLVLQLHRIGDQLEKMNVQLMDELFNLLRDGFLLQEDLSSMGRLLLLEILEFRAGGWKLSDTAQKYYYSEVTD
B2 was tested, and the “stoichiometry N” value (SEC) was 2.

B3: R202A human SLIP1, (His)6-tagged, expressed alone from pET28a (natural protein, UniProt A9UHW6 1-222, looked up)
chain: B1 chain with R202A
B3 was tested, and the “stoichiometry N” value (AUC) was 2.
